Source: patent US20050089538A1 (IMMUNOMEDICS, published 2005)

T1: carcinoembryonic antigen (human, UniProt P06731 35-685, limits assumed)
T1 construct: CEA sample fixed to a solid support, directly or through a capture antibody such as MN-15; also called CEA
T1 sequence (looked up): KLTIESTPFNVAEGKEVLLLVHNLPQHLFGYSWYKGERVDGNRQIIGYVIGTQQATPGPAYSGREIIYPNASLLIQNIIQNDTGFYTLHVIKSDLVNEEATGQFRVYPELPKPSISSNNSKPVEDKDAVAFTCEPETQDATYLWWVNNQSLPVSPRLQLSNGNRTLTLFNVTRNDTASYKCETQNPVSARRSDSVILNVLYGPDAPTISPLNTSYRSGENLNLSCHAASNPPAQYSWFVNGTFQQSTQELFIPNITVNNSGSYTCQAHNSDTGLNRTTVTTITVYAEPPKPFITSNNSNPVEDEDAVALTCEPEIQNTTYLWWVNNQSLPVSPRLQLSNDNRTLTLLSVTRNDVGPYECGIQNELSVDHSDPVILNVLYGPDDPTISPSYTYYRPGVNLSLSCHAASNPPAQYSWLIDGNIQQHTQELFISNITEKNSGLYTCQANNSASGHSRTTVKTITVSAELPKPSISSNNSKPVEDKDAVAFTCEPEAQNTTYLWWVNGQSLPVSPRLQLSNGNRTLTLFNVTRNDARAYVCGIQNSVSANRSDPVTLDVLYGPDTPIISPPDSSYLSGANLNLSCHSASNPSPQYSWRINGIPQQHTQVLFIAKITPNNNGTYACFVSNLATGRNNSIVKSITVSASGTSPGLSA


Key:
carcinoembryonic antigen [1] = target: T1, carcinoembryonic antigen; experiment: MN-14 blocking assay on CEA, competitor HRP-labeled MN-14 (FIG. 9)
Procedure: (§1) The humanized KLHuVH varients, such as antibody KLHuVHAIGA/HuVK, were purified and tested in a blocking assay carried out as follows. Antibodies were added at the indicated concentrations together with HRP-labeled MN-14 to a final volume of 0.1 ml. Following 30 mins. of incubation at 37₁C, and washing to remove unbound antibodies, the relative affinities of the antibodies were determined from the remaining bound peroxidase activity. A shown by the assay data of FIG. 9, the activity of the “reshaped” (i.e., CDR-engrafted on FR) humanized antibody was similar to that of chimeric and murine positive controls.

carcinoembryonic antigen [2] = target: T1, carcinoembryonic antigen; experiment: MN-14 blocking assay on CEA, unlabelled murine MN-14 against HRP-labeled MN-14 (FIG. 9)
Procedure: as §1

Binder	binding result (carcinoembryonic antigen [1])	binding result (carcinoembryonic antigen [2])
chimeric MN-14 antibody (MN-14 mouse VH and VK joined to human IgG1 and human kappa constant regions) (antibody, V domains shown, Human IgG1 constant region (Takahashi et al.) and human kappa constant region (Hieter et al.); The variable regions were re-amplified with primers VH1BACK/VH1FOR and VK8BACK/VK3FOR, so their terminal residues may be dictated by the primers; also called chimeric control; chimeric antibody) VH: EVKLLESGGGLVQSGGSLKLSCAASGFDFTTYWMSWVRQAPGKGLEWIGEIHPDSSTINYAPSLKDKFIVSRDNAKNTLYLQMSKVRSEDTALYYCASLYFGFPWFAYWGQGTPVTVSA VL: EIQLTQSHKMMSTSVGDRVSITCKASQDVGTSVAWYQQRPGQSPKLLIYWTSTRHTGVPDRFTGSVSGTDFTLTITNVQSEDLADYFCQQYSLYRSFGGGTKLEIK	binds	–
murine anti-CEA IgG1 monoclonal antibody MN-14 (antibody, V domains shown, Murine kappa IgG1; also called mMN-14; murine control) VH: EVKLLESGGGLVQSGGSLKLSCAASGFDFTTYWMSWVRQAPGKGLEWIGEIHPDSSTINYAPSLKDKFIVSRDNAKNTLYLQMSKVRSEDTALYYCASLYFGFPWFAYWGQGTPVTVSA VL: EIQLTQSHKMMSTSVGDRVSITCKASQDVGTSVAWYQQRPGQSPKLLIYWTSTRHTGVPDRFTGSVSGTDFTLTITNVQSEDLADYFCQQYSLYRSFGGGTKLEIK	–	binds
